Test results as given in patent US20120231013A1 (Amgen, published 2012).
Substitutions are numbered along the chain they refer to.

B1: LRP-1 peptide LA5-7 (peptide)
chain: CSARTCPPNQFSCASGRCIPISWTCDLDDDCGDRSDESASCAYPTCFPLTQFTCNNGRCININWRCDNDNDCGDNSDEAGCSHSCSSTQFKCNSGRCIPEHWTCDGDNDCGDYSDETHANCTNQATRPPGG
notes: Tags implied (Ni-NTA, anti-HA detection), not described
B2: LRP-1 peptide LA3-5 (peptide)
chain: not shown
notes: as for B1
B3: LRP-1 peptide LA24 (peptide)
chain: not shown
notes: as for B1
B4: LRP-1 peptide LA3-4 (peptide)
chain: not shown
notes: as for B1
B5: LRP-1 peptide LA24-25 (peptide)
chain: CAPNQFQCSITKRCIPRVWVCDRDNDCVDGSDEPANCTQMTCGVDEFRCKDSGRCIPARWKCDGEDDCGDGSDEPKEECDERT
notes: as for B1
B6: LRP-1 peptide LA15-17 (peptide)
chain: CPLNYFACPSGRCIPMSWTCDKEDDCEHGEDETHCNKFCSEAQFECQNHRCISKQWLCDGSDDCGDGSDEAAHCEGKTCGPSSFSCPGTHVCVPERWLCDGDKDCADGADESIAAGCLYNST
notes: The end 2817 is inferred from the end of LA17
B7: LRP-1 peptide LA5-6 (peptide)
chain: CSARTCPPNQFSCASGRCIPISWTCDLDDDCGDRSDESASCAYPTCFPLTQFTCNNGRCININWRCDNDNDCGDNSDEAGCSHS
notes: as for B1

What follows are binders tested against T1, recombinant human TIMP-3 (human, UniProt P35625 24-211) (assay: direct ELISA, coated huTIMP-3).
T1 construct: also called HuTIMP-3; huTIMP-3
T1 sequence (looked up): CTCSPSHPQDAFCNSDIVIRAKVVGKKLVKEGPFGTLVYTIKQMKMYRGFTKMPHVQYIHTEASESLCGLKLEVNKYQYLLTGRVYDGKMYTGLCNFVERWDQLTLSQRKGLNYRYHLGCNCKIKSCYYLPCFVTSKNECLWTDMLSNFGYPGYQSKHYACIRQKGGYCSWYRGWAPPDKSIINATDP
Experimental: (§1) After incubation, the coating solution is removed and replaced with 250 microL/well of blocking buffer (1% BSA, TBS [pH 7.5], 1 mM CaCl₂) and incubated with shaking for 1 hour at room temperature. The plates are then washed three times with 200 microL/well with wash buffer 1 (TBS [pH 7.5], 1 mM CaCl₂). The LRP-1 peptides are titrated in assay buffer (0.1% BSA, TBS [pH 7.5], 1 mM CaCl₂, 0.02% Tween-20) in a separate polypropylene non-treated round-bottom 96-well plate (BD Falcon™) starting at 1 microM concentration and then diluted serially 4-fold for 8-points, with the last point buffer only. Then 100 microL/well of the diluted LRP-1 peptide titration is added to the TIMP-3 coated plate and allowed to bind for 1.5 hour at room temperature with shaking. After incubation, the plate is washed three times with 200 microL/well of wash buffer 2 (TBS [pH 7.5], 1 mM CaCl₂, 0.02% Tween-20). […] The assay plate is then washed three times with 200 microL/well with wash buffer 2. The plate is developed by adding 100 microL/well of 1:1 mixture of TMB and H₂O₂ (Pierce, Fisher Thermo Scientific, Rockford Il.), the reaction is stopped by adding 100 microL/well 2NH₂SO₄ (VWR), and read on a SpectraMax microplate reader (Molecular Devices, Sunnyvale, Calif.) at OD450 nm using SOFTmax Pro software version 3.1.2. Data is analyzed using GraphPad Prism 4.01 software. Binding of LRP-1 peptides to TIMP-3 is expressed as binding EC50.

Binder | EC50
B1 | 94 nM
B2 | 78 nM
B3 | 68 nM
B4 | 226 nM
B5 | 162 nM
B6 | 510 nM

Each binder was assayed against T2, recombinant TIMP-3 (human or mouse; Table 2 does not say which) (assay: binding ELISA, Assay 2).
T2 construct: The methods say 'human or mouse TIMP-3'

Binder | EC50
B3 | ~500 nM
B4 | 289 nM
B7 | 400 nM
B5 | 211 nM

These binders were tested against T2, recombinant TIMP-3 (human or mouse; …) (assay: binding ELISA, Assay 3).

Binder | EC50
B1 | 350 nM
B2 | 214 nM
B3 | ~1000 nM
B4 | 500 nM
B7 | 512 nM
B5 | 436 nM
B6 | 191 nM

Each binder was assayed against T1, recombinant human TIMP-3 (assay: indirect ELISA, huTIMP-3 captured by anti-TIMP-3 clone 277128).
Experimental: Then 100 microL/well of the diluted LRP-1 peptide titration is added to the TIMP-3 coated plate and allowed to bind for 1.5 hour at room temperature with shaking. After incubation, the plate is washed three times with 200 microL/well of wash buffer 2 (TBS [pH 7.5], 1 mM CaCl₂, 0.02% Tween-20). […] The assay plate is then washed three times with 200 microL/well with wash buffer 2. The plate is developed by adding 100 microL/well of 1:1 mixture of TMB and H₂O₂ (Pierce, Fisher Thermo Scientific, Rockford Il.), the reaction is stopped by adding 100 microL/well 2NH₂SO₄ (VWR), and read on a SpectraMax microplate reader (Molecular Devices, Sunnyvale, Calif.) at OD450 nm using SOFTmax Pro software version 3.1.2. Data is analyzed using GraphPad Prism 4.01 software. Binding of LRP-1 peptides to TIMP-3 is expressed as binding EC50.
After incubation, the plate contents are discarded and 250 microL/well of blocking buffer (1% BSA, TBS [pH 7.5], 1 mM CaCl₂) is added to the plate which is incubated with shaking for 1 hour at room temperature. The plate is then washed three times with 200 microL/well with wash buffer 1 (TBS [pH 7.5], 1 mM CaCl₂) followed by the addition of 100 microL of 20 nM recombinant human TIMP-3. The plate is incubated at room temperature for 1 hour. The LRP-1 peptides are titrated as described previously, and 100 microL/well of the diluted LRP-1 peptide titration is added to the TIMP-3 coated plate and allowed to bind for 1.5 hour at room temperature with shaking. After incubation, the plate is washed and the ELISA performed substantially as described previously for the direct binding ELISA.

Binder | EC50
B1 | 9 nM
B2 | 8 nM
B3 | 10 nM
B4 | 81 nM
B7 | 78 nM
B5 | 32 nM
B6 | 100 nM

The binders below were run against T2, recombinant TIMP-3 (human or mouse; …) (assay: AlphaScreen, biotinylated TIMP-3, Assay 1).
Experimental: (§2) Peptides were also evaluated by AlphaScreen® (Amplified Luminescent Proximity Homogeneous Assay; PerkinElmer, Waltham, Mass.) a very sensitive non-radioactive homogeneous assay technology that allows the screening of a large range of biological interactions and activities, substantially according to the manufacturer's instructions. Briefly, all dilutions are made in AlphaScreen® Buffer: [40 mM HEPES pH 7.5, 100 mM NaCl, 1 mM CaCl2, 0.1% BSA, 0.05% Tween-20]. The LRP-1 peptides are titrated in a separate polypropylene 96-well plate (Falcon) starting at 4 microM concentration and then diluted serially 3-fold for 12-points, with the last point buffer only. First 2 microL/well of protein titration curve is added to white, small volume, 384-well assay plate (Greiner Bio-One, Stonehouse, UK) in duplicate. Next, 2 microL of biotinylated (AFS, in-house conjmicroGation) recombinant human or mouse TIMP-3, is added at 12 nM (or 3 nM final assay concentration) to the assay plate. Lastly, in subdued light 4 microL of a mixture of streptavidin donor beads, anti-mouse IgG acceptor beads (PerkinElmer) both diluted to 20 microG/mL (10 microG/mL final assay concentration) and 2 nM (1 nM final concentration) rat-anti-HA (clone3F10)-HRP (Roche Diagnostics) is added to the plates. Plates containing 8 microL final assay volme are covered with TopSeal A (to prevent evaporation), spun quickly at 1000 rpm, and incubated overnight (covered with foil to prevent light exposure) before reading on Fusion plate reader (PerkinElmer) using AlphaScreen® parameters (excitation 680 nm and emission 520-620 nm). Data is analyzed using GraphPad Prism 4.01 software. Binding to TIMP-3 is reported as total signal (cps).

Binder | total signal (cps)
B1 | 2000 cps
B2 | 4000 cps
B3 | 2200 cps
B4 | 9000 cps
B7 | 6000 cps
B5 | 290000 cps
B6 | 90000 cps

Each binder was assayed against T3, recombinant mouse TIMP-3 (mouse, UniProt P39876 24-211) (assay: direct ELISA, coated muTIMP-3).
T3 construct: also called MuTIMP-3
T3 sequence (looked up): T1 sequence (looked up) with T51S, D87E, Q103H, I183S
Experimental: as §1

Binder | EC50
B1 | 74 nM
B2 | 71 nM
B3 | 66 nM
B4 | 155 nM
B7 | 332 nM
B5 | 124 nM
B6 | 306 nM

The binders below were run against T2, recombinant TIMP-3 (human or mouse; …) (assay: binding ELISA, Assay 1).

Binder | EC50
B1 | 210 nM
B2 | 52.5 nM
B6 | 193 nM

Each binder was assayed against T1, recombinant human TIMP-3 (assay: cell-based or functional assay).

Binder | % of the inhibitory activity of TIMP-3 + peptide compared to TIMP-3 alone, 16 nM | % of the inhibitory activity of TIMP-3 + peptide compared to TIMP-3 alone, 80 nM | % of the inhibitory activity of TIMP-3 + peptide compared to TIMP-3 alone, 400 nM | % of the inhibitory activity of TIMP-3 + peptide compared to TIMP-3 alone, 2000 nM
B1 | 101% | 99% | 93% | 68%
B2 | 104% | 101% | – | 101%
B3 | 104% | 104% | – | 81%
B4 | 104% | – | 84% | 91%
B7 | 97% | 80% | 72% | 65%
B5 | 90% | 88% | 87% | 92%
B6 | 95% | 82% | 83% | 91%

What follows are binders tested against MMP-13 (UniProt P45452 20-471, limits assumed) (assay: cell-based or functional assay).

Binder | Direct Inhibition of MMP13 (% decrease), 1000 nM
B1 | 2%
B2 | 2%
B3 | -22%
B7 | 16%

These binders were tested against T2, recombinant TIMP-3 (human or mouse; …) (assay: AlphaScreen, biotinylated TIMP-3, Assay 2).
Experimental: as §2

Binder | total signal (cps)
B1 | 8000 cps
B2 | 9000 cps
B3 | 2000 cps
B4 | 3500 cps
B7 | 4000 cps
B5 | 130000 cps
B6 | 70000 cps
